Data on six compounds can be found in PMC8307404, “Crystal Structure-Guided Design of Bisubstrate Inhibitors and Photoluminescent Probes for Protein Kinases of the PIM Family” (Molecules, 2021).

Square brackets hold non-standard residues; d marks the D form. Peptide text beside a SMILES is read from it. * marks the point of attachment. X3 = O=C(CCCCCNCc1nc2c(sc3cc(Br)cnc32)c(=O)[nH]1)*

Data set [1] deals with RSK1 (Homo sapiens, UniProt Q15418). Description: Kinase profiling (radiometric filter-binding). The format is biochemical. The conditions noted are these: RSK1, 1 µM inhibitor; read-out: Residual activity, %. The procedure:
(§1) Kinase selectivity profiling was performed using the commercial service provided by the MRC PPU International Centre for Kinase Profiling (Dundee, UK) using a radiometric filter-binding assay. Kinases used for analysis were of human origin. The ATP concentration applied for inhibition measurements was at or below the ATP KM value of the particular PK. ARC-3125 and ARC-3126 were screened against 139 PKs, whereas compounds 1, 2, and 8 were screened against 140 PKs. The final total concentration of inhibitors in the selectivity panel was 1 µM. Residual activities were expressed as the percentage of retained activity compared to the control without inhibitor.

For data set [2], the target named is T1, TBK1 (Homo sapiens, UniProt Q9UHD2).
T1 sequence (Q9UHD2 1-729): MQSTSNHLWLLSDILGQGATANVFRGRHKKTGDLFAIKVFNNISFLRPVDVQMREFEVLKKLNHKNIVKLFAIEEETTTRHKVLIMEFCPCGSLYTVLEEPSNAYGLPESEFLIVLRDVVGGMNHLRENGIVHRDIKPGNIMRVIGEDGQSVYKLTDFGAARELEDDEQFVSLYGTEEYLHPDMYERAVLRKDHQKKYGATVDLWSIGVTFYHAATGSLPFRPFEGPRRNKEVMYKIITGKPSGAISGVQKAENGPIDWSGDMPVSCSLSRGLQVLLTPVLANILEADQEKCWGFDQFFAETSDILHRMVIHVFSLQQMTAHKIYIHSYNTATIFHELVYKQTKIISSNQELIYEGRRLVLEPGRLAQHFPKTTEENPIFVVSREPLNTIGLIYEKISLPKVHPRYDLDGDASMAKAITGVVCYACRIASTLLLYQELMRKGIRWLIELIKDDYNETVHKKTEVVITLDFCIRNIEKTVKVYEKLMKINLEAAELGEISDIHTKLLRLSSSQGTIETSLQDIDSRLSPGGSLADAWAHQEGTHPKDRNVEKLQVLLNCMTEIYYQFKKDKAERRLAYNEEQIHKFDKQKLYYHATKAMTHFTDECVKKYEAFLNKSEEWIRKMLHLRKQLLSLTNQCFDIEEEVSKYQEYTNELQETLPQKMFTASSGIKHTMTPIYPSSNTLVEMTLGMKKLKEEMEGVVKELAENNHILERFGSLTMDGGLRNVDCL
Description: Kinase profiling (radiometric filter-binding). It is filed as biochemical. As to conditions: TBK1, 1 µM inhibitor; read-out: Residual activity, %. The procedure: as §1

In data set [3] the target is MARK2 (Homo sapiens, UniProt Q7KZI7). The experiment in a line: Kinase profiling (radiometric filter-binding). It is filed as biochemical. As to conditions: MARK2, 1 µM inhibitor; read-out: Residual activity, %. Here is the method:
as §1

Data set [4] addresses T2, TAO1 (Homo sapiens, UniProt Q7L7X3).
T2 sequence (Q7L7X3 1-1001): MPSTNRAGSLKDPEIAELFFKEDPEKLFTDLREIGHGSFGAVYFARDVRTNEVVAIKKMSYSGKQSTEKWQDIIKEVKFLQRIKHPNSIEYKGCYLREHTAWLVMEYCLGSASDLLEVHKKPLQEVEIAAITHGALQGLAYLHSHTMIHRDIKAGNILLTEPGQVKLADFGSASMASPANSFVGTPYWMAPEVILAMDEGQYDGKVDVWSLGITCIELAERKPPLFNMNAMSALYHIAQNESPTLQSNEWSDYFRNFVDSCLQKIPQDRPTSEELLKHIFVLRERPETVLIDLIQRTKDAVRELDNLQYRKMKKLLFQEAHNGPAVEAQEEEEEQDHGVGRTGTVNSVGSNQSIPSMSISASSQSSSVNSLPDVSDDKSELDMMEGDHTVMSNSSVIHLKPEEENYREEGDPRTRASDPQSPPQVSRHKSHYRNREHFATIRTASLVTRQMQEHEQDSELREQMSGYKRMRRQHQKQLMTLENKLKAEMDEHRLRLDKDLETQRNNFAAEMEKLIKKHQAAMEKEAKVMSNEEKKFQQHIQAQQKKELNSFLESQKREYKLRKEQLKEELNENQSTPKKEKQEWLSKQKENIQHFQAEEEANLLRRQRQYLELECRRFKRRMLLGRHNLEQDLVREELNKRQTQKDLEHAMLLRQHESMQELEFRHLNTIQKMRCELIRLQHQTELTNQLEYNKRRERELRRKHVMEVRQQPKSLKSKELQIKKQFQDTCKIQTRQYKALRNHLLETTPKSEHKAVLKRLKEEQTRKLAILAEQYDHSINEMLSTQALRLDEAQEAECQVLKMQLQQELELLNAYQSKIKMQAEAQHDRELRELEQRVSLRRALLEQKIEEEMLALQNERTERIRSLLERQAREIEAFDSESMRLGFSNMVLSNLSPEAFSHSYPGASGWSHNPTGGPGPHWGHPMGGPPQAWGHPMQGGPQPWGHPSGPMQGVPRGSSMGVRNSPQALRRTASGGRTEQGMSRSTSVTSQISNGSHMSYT
Description: Kinase profiling (radiometric filter-binding). It is filed as biochemical. As to conditions: TAO1, 1 µM inhibitor; read-out: Residual activity, %. The procedure:
as §1

Data set [5] has as its target CAMK1 (Homo sapiens, UniProt Q14012). Description: Kinase profiling (radiometric filter-binding). The format is biochemical. The conditions noted are these: CAMK1, 1 µM inhibitor; read-out: Residual activity, %. The procedure: as §1
The target of data set [6] is JNK3 (Homo sapiens, UniProt P53779). Description: Kinase profiling (radiometric filter-binding). The format is biochemical. As to conditions: JNK3, 1 µM inhibitor; read-out: Residual activity, %. Here is the method:
as §1

For data set [7], the target named is DYRK1A (Homo sapiens, UniProt Q13627). The experiment in a line: Kinase profiling (radiometric filter-binding). The format is biochemical. As to conditions: 1 µM inhibitor, read-out: Residual activity, %. The procedure: as §1
Data set [8] addresses PKBβ (Homo sapiens, UniProt P31751). Description: Kinase profiling (radiometric filter-binding). The format is biochemical. As to conditions: PKB, second of two PKB lines (Greek letter lost; PKBβ), 1 µM inhibitor; read-out: Residual activity, %. Here is the method: as §1
The test system of data set [9] is p38 MAPK. The experiment in a line: Kinase profiling (radiometric filter-binding). The format is biochemical, human. As to conditions: 1 µM inhibitor. The procedure:
as §1

For data set [10], the system named is AMPK. The experiment in a line: Kinase profiling (radiometric filter-binding). The format is biochemical, human. As to conditions: 1 µM inhibitor. Here is the method: as §1
Data set [11] addresses PIM3 (Homo sapiens, UniProt Q86V86). Description: Binding/displacement assay with FA or TGLI readout. The arrangement: made in house. As to conditions: mean ± SEM, N = 2.
Description: The affinities of the compounds toward the PIM family PKs were determined in a binding/displacement assay with measurement of fluorescence anisotropy (FA) and time-gated luminescence intensity (TGLI) (Table 2). For the initial assessment of the selectivity of compounds, PKAcα was used as the reference basophilic kinase [10].
Optical FA measurement modules for 5-TAMRA-labeled compounds (ex. 540(20) nm, em. 590(20) nm and 590(20) nm), for Cy5-labeled compounds (ex. 590(50) nm, em. 675(50) nm and 675(50) nm), and optical TGLI measurement modules for ARC-1451 (ex. 330(60) nm, em. 590(50) nm), for ARC-1188 (ex. 330(60) nm, em. 675(50) nm) were used for assays with PHERAstar microplate reader (BMG Labtech; Ortenberg, Germany). TGLI measurements were performed with a delay time of 50 μs and integration of the signal for 150 μs. In each measurement, emission from 200 flashes of excitation radiation was collected. The measurement solutions (20 µL volumes) were prepared in black 384-well low-binding surface microtiter plates (Corning #4514; Kennebunk, ME, USA) and incubated for 20 min at 30 °C before the measurements. The assay buffer contained HEPES hemisodium salt (pH 7.4, 50 mM), NaCl (150 mM), dithiothreitol (5 mM), bovine serum albumin (0.5 mg/mL), and Tween-20 (0.005%). […] 5.04 (GraphPad Software, Inc.) was used for data analysis with FA [32] or TGLI [33] readouts.
Data set [12] deals with PINK. Description: Kinase profiling (radiometric filter-binding). It is filed as biochemical, human. The conditions noted are these: 1 µM inhibitor. The procedure: as §1
Where [13] appears, read: fourth of four lines (Greek letter lost).
Where [14] appears, read: third of four lines (Greek letter lost).

Sequence of CAMK1 (Q14012 whole entry): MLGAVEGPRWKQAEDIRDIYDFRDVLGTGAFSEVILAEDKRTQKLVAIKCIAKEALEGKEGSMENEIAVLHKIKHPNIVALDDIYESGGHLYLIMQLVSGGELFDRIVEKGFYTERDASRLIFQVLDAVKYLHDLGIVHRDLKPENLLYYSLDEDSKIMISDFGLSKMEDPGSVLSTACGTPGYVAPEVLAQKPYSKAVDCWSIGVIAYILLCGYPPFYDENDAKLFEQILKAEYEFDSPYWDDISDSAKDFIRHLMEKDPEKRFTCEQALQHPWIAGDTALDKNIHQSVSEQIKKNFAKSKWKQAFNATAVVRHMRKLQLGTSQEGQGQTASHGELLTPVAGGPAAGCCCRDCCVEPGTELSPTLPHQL
Sequence of MARK2 (Q7KZI7 whole entry): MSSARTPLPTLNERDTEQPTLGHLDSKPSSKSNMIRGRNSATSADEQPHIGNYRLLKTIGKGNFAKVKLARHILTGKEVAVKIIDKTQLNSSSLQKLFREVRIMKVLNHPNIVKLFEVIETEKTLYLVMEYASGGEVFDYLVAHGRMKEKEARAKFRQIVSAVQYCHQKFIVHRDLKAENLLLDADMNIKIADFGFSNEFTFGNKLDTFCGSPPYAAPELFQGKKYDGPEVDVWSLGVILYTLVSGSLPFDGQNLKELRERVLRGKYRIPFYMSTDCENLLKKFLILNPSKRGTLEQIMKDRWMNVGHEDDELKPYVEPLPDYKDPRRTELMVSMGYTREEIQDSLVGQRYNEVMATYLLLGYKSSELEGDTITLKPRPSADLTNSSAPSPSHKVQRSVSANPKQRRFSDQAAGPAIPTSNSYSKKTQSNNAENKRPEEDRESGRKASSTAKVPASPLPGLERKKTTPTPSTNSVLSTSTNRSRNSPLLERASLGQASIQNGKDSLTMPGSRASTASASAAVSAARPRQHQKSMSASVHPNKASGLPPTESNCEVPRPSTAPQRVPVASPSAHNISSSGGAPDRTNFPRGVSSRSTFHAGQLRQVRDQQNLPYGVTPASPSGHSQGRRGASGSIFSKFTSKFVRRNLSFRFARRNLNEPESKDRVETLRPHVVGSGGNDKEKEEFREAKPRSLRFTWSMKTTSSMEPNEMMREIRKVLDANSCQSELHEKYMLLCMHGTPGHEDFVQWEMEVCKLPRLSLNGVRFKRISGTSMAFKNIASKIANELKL
Sequence of PKBβ (P31751 whole entry): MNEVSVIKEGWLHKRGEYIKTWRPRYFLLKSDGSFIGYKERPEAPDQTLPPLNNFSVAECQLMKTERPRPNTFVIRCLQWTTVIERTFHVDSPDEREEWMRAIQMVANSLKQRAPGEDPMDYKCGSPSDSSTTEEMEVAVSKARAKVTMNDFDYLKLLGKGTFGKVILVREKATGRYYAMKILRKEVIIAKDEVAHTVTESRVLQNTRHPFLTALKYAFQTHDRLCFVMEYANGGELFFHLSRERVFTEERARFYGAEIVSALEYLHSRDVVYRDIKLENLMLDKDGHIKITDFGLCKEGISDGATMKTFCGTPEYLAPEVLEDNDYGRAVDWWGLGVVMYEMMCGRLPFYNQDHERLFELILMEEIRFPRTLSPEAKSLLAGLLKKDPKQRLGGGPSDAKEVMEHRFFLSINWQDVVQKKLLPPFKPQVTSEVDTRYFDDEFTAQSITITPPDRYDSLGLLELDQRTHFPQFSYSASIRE
Sequence of JNK3 (P53779 whole entry): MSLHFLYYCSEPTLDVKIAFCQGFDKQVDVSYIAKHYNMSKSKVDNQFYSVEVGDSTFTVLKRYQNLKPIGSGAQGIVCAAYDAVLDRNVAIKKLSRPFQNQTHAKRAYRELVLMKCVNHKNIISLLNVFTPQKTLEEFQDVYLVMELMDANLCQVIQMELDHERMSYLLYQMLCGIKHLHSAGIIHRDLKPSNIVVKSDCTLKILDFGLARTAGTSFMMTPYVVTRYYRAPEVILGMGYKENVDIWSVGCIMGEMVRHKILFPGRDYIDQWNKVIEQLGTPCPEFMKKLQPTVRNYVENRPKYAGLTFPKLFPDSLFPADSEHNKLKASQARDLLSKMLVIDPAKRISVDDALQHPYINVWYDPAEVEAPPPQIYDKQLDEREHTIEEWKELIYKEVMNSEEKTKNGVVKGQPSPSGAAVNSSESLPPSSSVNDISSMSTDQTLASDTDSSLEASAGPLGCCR
Sequence of RSK1 (Q15418 whole entry): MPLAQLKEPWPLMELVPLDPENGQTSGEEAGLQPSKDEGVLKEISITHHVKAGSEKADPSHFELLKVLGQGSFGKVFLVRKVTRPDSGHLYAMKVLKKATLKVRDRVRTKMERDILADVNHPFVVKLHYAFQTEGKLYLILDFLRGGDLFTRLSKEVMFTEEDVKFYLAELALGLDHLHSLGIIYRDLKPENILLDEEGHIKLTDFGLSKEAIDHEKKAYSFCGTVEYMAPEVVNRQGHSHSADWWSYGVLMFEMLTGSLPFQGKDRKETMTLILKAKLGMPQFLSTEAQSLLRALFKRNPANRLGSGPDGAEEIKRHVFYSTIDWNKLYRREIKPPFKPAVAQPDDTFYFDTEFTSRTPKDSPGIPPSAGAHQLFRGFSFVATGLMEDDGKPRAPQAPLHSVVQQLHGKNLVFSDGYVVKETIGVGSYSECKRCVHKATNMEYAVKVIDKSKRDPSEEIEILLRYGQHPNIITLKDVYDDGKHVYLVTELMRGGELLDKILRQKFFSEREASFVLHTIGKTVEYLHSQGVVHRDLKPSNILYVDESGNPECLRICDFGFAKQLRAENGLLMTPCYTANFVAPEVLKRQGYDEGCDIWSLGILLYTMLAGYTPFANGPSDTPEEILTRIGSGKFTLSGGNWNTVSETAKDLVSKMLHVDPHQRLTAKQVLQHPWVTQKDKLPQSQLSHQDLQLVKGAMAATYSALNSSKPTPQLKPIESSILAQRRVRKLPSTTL

With `N=C(N)NCCC[C@@H](NC(=O)CCCCCNC(=O)Cn1cnc2c(I)c(I)c(I)c(I)c21)C(=O)N[C@H](CCCNC(=N)N)C(=O)N[C@H](CCCNC(=N)N)C(=O)N[C@H](CCCNC(=N)N)C(=O)N[C@H](CCCNC(=N)N)C(=O)N[C@H](CCCNC(=N)N)C(=O)N[C@H](CCCCN)C(N)=O` [ARC-3125, TIBI-CH2-C(=O)-Ahx-(D-Arg)6-D-Lys-NH2], the remaining activity at 1 µM in data set [1] was determined as 19 ± 1%; in [2], 68 ± 3%; in data set [3], 86 ± 4%; in data set [4], 32 ± 6%; in data set [5] it was 3 ± 11%; in data set [6], 120 ± 2%. In addition, the figures for the remaining activity at 1 µM in data set [7] and in data set [8] were 28 ± 7% and 1 ± 1%, respectively.

As for `N=C(N)NCCC[C@@H](NC(=O)CCCCCNCc1nc2c(sc3cc(Br)cnc32)c(=O)[nH]1)C(=O)N[C@H](CCCNC(=N)N)C(=O)N[C@H](CCCNC(=N)N)C(=O)N[C@H](CCCNC(=N)N)C(=O)N[C@H](CCCNC(=N)N)C(=O)N[C@H](CCCNC(=N)N)C(=O)N[C@H](CCCCN)C(N)=O` [ARC-3126, BPTP-Ahx-(D-Arg)6-D-Lys-NH2] (X3-[dR][dR][dR][dR][dR][dR][dK]-NH2), the remaining activity at 1 µM in [1] was 82 ± 10%; in data set [2], 105 ± 12%; in data set [3] it was 103 ± 7%; in data set [4], 95 ± 3%; in data set [5] it was 55 ± 9%; in data set [6], 121 ± 5%. In addition, the remaining activity at 1 µM is 99 ± 6% in data set [7] and 86 ± 10% in data set [8]. Besides, the “Residual activity, %” value was determined as 129 ± 10% in [9] (setting [13]), 111 ± 4% in data set [9] (setting [14]) and 38 ± 4% in data set [10]. In data set [11], this compound showed a Kd of 2 ± 0.5 nM.

In the case of `N=C(N)NCCC[C@@H](NC(=O)CNC(=O)[C@@H](CCCNC(=N)N)NC(=O)[C@@H](CCCNC(=N)N)NC(=O)CCCCCCCNCc1nc2c(sc3cc(Br)cnc32)c(=O)[nH]1)C(=O)N[C@H](CCCCN)C(N)=O` [Compound 1, BPTP-Aoc-(D-Arg)2-Gly-D-Arg-D-Lys-NH2], the remaining activity at 1 µM in data set [1] turned out to be 95%; in data set [2] it was 113 ± 29%; in data set [3] it was 106 ± 10%; in data set [4], 106 ± 10%; in data set [5], 81 ± 18%; in [6], 92%. For the same compound, the remaining activity at 1 µM in [7] was found to be 74%; in [8], 115 ± 26%. The “Residual activity, %” value in [9] (setting [13]) was determined as 116 ± 6%; in data set [9] (setting [14]), 109 ± 7%; in [12], 116 ± 5%; in data set [10], 92 ± 9%. In data set [11], this compound came in with a Kd of 5.2 ± 1 nM.

Take `N=C(N)NCCC[C@@H](NC(=O)CNC(=O)[C@@H](CCCNC(=N)N)NC(=O)[C@@H](CCCNC(=N)N)NC(=O)CCCCCCCNCc1nc2c(sc3ccc(Br)cc32)c(=O)[nH]1)C(=O)N[C@H](CCCCN)C(N)=O` [Compound 2, BBTP-Aoc-(D-Arg)2-Gly-D-Arg-D-Lys-NH2]: the remaining activity at 1 µM amounted to 31% in [1]; 113% in data set [2]; 107 ± 4% in data set [3]; 49% in [4]; 81% in data set [5]; 108 ± 3% in [6]. The remaining activity at 1 µM in [7] came to 5%; in [8] it was 101%. Also, the “Residual activity, %” value in data set [9] (setting [13]) stood at 115 ± 0%; in data set [9] (setting [14]), 117 ± 1%; in data set [12], 121 ± 17%; in data set [10], 91 ± 4%. This compound also showed a Kd in data set [11] of 2 ± 0.4 nM.

`N=C(N)NCCC[C@@H](NC(=O)CNC(=O)[C@@H](CCCNC(=N)N)NC(=O)[C@@H](CCCNC(=N)N)NC(=O)Cn1cc(CNCc2nc3c(sc4ccc(Br)cc43)c(=O)[nH]2)nn1)C(=O)N[C@H](CCCCN)C(N)=O` [Compound 3, BBTP-Amt-(D-Arg)2-Gly-D-Arg-D-Lys-NH2]: the remaining activity at 1 µM worked out at 74 ± 12% in data set [1]; 46 ± 4% in [2]; 79% in data set [3]; 80 ± 4% in data set [4]; 49 ± 11% in data set [5]; 113 ± 22% in data set [6]. The values for the remaining activity at 1 µM in data set [7] and in data set [8] were 37 ± 15% and 54 ± 6%, respectively. Besides, the “Residual activity, %” value in data set [9] (setting [13]) stood at 111 ± 1%; in [9] (setting [14]), 108 ± 8%; in [12], 92 ± 0%; in [10] it was 47 ± 6%. For the same compound, binding in data set [11] was put at a Kd of 7 ± 1 nM.

Turning to `CN(C)c1ccc2c(c1)Oc1cc(N(C)C)ccc1C21OC(=O)c2cc(C(=O)NCCCC[C@@H](NC(=O)[C@@H](CCCNC(=N)N)NC(=O)CNC(=O)[C@@H](CCCNC(=N)N)NC(=O)[C@@H](CCCNC(=N)N)NC(=O)CCCCc3cn(Cc4nc5c(sc6ccc(Br)cc65)c(=O)[nH]4)nn3)C(N)=O)ccc21` [Compound 8, BBTP-Tap-(D-Arg)2-Gly-D-Arg-[D-Lys(5-TAMRA)]-NH2], the remaining activity at 1 µM in data set [1] is 74%; in data set [2] it was 46%; in data set [4], 80%; in [5], 49%; in data set [7], 37%; in data set [8], 54%. In data set [11], this compound gave a Kd of 15.7 ± 3 nM.

Usually Kd stands for the constant that tells how readily two partners part at equilibrium.
